Assay results from patent US20260209324A1.

Target: LFA-1 on immune cells (THP-1 cells, activated T cells) (human) (UniProt P20701)

adhesion of THP-1 cells on TNF-α stimulated TEC monolayers (% inhibition of adhesion): 55
Substance: human recombinant EDIL3 (from UniProt O43854) (ligand)
